Laboratory results taken from patent CN106905431A (XUHUA (SHANGHAI) BIOLOGICAL RES AND DEV CENTER CO LTD, dated 2017).
Substitutions are numbered along the chain they refer to. One block for each binder: values may come before it.

Assays:
[1] = target: T1, 人补体D因子 (human complement Factor D) (human, UniProt P00746 26-253); assay: ELISA on coated human Factor D and BLI
T1 construct: Bought protein; also called 人D因子; human CFD

[2] = target: T1, 人补体D因子 (human complement Factor D); assay: SPR (Biacore T200), full-length antibody captured by anti-human IgG Fc on CM5, antigen in flow, 1:1 model
[3] = target: T1, 人补体D因子 (human complement Factor D); assay: SPR (Biacore T200), Fab captured on CM5 chip

T1 sequence (P00746 26-253 limits assumed): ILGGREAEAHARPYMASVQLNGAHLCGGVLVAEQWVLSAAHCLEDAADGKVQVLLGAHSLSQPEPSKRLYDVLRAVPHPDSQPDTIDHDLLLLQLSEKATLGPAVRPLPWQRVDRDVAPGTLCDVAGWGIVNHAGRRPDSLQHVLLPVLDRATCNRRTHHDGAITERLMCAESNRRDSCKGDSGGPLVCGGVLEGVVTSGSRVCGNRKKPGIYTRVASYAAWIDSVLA

binding result [2]: binds
B2: 抗人D因子嵌合抗体 (Mab25的嵌合抗体, 全长) (antibody, V domains shown)
VH: AVQLQQSGPELVKPGASVKMSCKASGYTFTSYVINWMKQKPGQGLEWIGYINPYIDDSEYNEKFEGKATLTSDKTSSIAYMELSSLTSEDSAVYYCAREGPAFAYWGQGTLVTVSA
VL: DILLTQTPLSLPVSLGDHASVSCRSSQNLVHSNGDTYLEWYLQKPGQSPKLLIYKVSTRFSGVPDRFSGSGSGTDFTLKISRVEAEDLGVYYCFQGSHVPPTFGGGTKLEIK
notes: Chimeric form of Mab25 (mouse variable regions on human constant regions), compared with the humanised antibodies in the Biacore assay

binding result [2]: binds
B4: 抗人D因子人源化抗体 AS01326 (全长抗体) (antibody, V domains shown)
VH: QVQLVQSGSELKKPGASVKVSCKASGYTFTSYVINWVRQMPGKGLEWMGYINPYIDDSEYNEKFEGRVTMTRDTSISTAYMELSRLRSDDTAVYYCAREGPAFAYWGQGTLVTVSS
VL: DVVMTQSPLSLPVTLGQPASISCRSSQNLVHSNGDTYLEWYLQKPGQPPQLLIYKVSTRFSGVPDRFSGSGSGTDFTLKISRVEAEDFGVYYCFQGSHVPPTFGQGTKVEIK
notes: Full-length antibody from pTT5 in HEK293, protein A purified, captured by anti-human IgG Fc

binding result [2]: binds
B5: 抗人D因子人源化抗体 AS01237 (全长抗体) (antibody, V domains shown)
VH: B4 VH with Q1E, S9A, L11V, M40A, K43Q, D73N, R85S, D89E
VL: B4 VL with V2I, S7T, P12S, L15P, L42Q, Q50K, F88V
notes: as for B4

binding result [3]: binds
B7: 人源化Fab克隆 AS01328 (Fab, V domains shown)
VH: B4 VH with M40A, P41T, K43Q, I76T, A79V, R85S, D89E
VL: B4 VL with V2I, S7T, P12S, L15P, Q17E, P48A, Q50R, F88V
notes: Fab fragment with a SASA tag, as screened on Biacore; also called AS01328 Fab

binding result [2]: binds
B8: 抗人D因子人源化抗体 AS01328 (全长抗体) (antibody, V domains shown)
VH: B4 VH with M40A, P41T, K43Q, I76T, A79V, R85S, D89E
VL: B4 VL with V2I, S7T, P12S, L15P, Q17E, P48A, Q50R, F88V
notes: as for B4

More lines, now with the values behind:

B1: 抗人D因子鼠源单克隆抗体 Mab25 (antibody, V domains shown)
VH: B2 VH
VL: B2 VL
notes: Mouse hybridoma antibody; The heavy chain was cloned with a primer for the mouse IgG1 constant region; also called 杂交瘤细胞株25
binding result [1]: binds

B3: 人源化Fab克隆 AS01237 (Fab, V domains shown)
VH: B4 VH with Q1E, S9A, L11V, M40A, K43Q, D73N, R85S, D89E
VL: B4 VL with V2I, S7T, P12S, L15P, L42Q, Q50K, F88V
notes: Fab fragment with a SASA tag, as screened on Biacore; also called AS01237 Fab
binding result [3]: binds

B6: 人源化Fab克隆 AS01326 (Fab, V domains shown)
VH: B4 VH
VL: B4 VL
notes: Fab fragment with a SASA tag, as screened on Biacore; also called AS01326 Fab
binding result [3]: binds
